Results as given in PMC4336284.

System: T1, GAF (GAGA-binding factor), His-GAF (Drosophila melanogaster), Q08605-2
T1 sequence: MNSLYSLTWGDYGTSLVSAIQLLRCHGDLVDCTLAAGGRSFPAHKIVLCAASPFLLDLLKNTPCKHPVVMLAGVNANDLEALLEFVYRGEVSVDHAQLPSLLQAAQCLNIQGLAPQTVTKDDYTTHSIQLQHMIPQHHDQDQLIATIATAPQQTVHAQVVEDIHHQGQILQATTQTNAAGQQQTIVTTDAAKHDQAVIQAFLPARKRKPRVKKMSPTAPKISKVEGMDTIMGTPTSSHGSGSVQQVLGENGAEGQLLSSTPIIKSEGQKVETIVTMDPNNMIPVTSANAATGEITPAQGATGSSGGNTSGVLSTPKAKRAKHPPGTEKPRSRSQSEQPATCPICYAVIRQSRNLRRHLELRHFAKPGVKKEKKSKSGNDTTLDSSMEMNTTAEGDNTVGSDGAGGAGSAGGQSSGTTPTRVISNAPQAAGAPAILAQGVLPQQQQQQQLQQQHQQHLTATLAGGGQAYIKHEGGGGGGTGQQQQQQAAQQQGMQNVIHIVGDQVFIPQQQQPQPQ
Experiment: EMSA
Settings: GAF: band shift buffer of cited ref 25 (composition not given), poly(dI-dC) 10 ng, 4.5% acrylamide Tris/borate/EDTA gel; HSF: 10 ug extract protein, as in ref …

Which binding does the source give for “CTGTTCTCGTTGCTTCGAGAGAGCGCGCCTCGAATGTTCGCGAAAAGAGCGCCGGAGTATAAATAGAGGAGCTTCGTCGACGGAGAGTCAA (double strand) [hsp70Aa promoter PCR fragment]” here?
The binding was “binds”.
